# In patent CN115677859A (HEFEI HANKEMAB BIOTECHNOLOGY CO LTD; ANHUI ANKE …, dated 2023):
# Legend:
# [1] = target: T1, 人4-1BB全长, 表达于细胞 (CHO-K1/h4-1BB; HEK-293/NFκB-Luci/4-1BB) (human, UniProt Q07011 24-255); experiment: flow cytometry on CHO-K1/h4-1BB cells
# T1 construct: also called 细胞表面人4-1BB抗原
# [2] = target: T2, 人PD-L1全长, 表达于CHO-K1细胞 (CHO-K1/hPD-L1; CHO-K1/PDL1/TCR) (human, UniProt Q9NZQ7 19-290); experiment: flow cytometry on CHO-K1/hPD-L1 cells, 4-parameter logistic fit
# T2 construct: Full-length human PD-L1 transfected into CHO-K1 cells; also called 细胞表面人PD-L1抗原
# [3] = target: T3, 人4-1BB胞外段, 带鼠Fc标签 (human 4-1BB extracellular domain with mouse Fc tag, Example 5) (human, UniProt Q07011 24-186); experiment: bridging ELISA: PD-L1-His coated, bispecific, then 4-1BB-mouse Fc, anti-mouse HRP
# T3 construct: also called 抗原人4-1BB; not shown: mouse Fc tag
# [4] = target: T2, 人PD-L1全长, 表达于CHO-K1细胞 (CHO-K1/hPD-L1; …); experiment: flow cytometry on CHO-K1/hPD-L1 cells, anti-human FITC
# [5] = target: T4, 人4-1BB胞外段 (human 4-1BB extracellular domain, HEK293-expressed, Example 4) (human, UniProt Q07011 24-186); experiment: ELISA, human 4-1BB ECD coated, anti-human IgG HRP
# T4 construct: also called 人4-1BB抗原; CD137
# [6] = target: T5, 猴PD-L1胞外段 (monkey PD-L1 extracellular domain) (monkey (猴), UniProt Q9NZQ7 19-238 (human entry)); experiment: ELISA, monkey PD-L1 ECD coated, anti-human HRP
# T5 construct: also called 猴PD-L1抗原
# [7] = target: T6, 猴4-1BB胞外段 (monkey 4-1BB extracellular domain) (monkey (猴), UniProt Q07011 24-186 (human entry)); experiment: ELISA, monkey 4-1BB ECD coated, anti-human HRP
# T6 construct: also called 猴4-1BB抗原
# T6 chain: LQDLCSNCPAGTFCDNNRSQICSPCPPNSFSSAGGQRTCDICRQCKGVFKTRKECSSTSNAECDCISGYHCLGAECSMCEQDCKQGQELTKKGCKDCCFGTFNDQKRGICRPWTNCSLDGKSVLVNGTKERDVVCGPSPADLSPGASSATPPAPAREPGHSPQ
# T2 sequence (Q9NZQ7 19-290 limits assumed): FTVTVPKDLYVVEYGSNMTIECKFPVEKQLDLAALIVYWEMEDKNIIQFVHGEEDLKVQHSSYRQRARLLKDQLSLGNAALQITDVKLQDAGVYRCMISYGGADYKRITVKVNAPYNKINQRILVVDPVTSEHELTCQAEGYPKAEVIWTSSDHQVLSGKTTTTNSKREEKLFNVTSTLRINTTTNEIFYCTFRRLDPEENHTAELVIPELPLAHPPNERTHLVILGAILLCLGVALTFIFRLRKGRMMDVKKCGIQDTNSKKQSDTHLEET
# T1 sequence (Q07011 24-255 limits assumed): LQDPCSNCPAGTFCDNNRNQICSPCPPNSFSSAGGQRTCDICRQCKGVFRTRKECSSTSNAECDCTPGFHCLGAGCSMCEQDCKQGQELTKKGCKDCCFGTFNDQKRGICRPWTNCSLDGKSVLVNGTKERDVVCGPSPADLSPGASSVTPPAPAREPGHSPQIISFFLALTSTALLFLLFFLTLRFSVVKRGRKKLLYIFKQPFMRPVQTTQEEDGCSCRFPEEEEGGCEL
# T5 sequence (Q9NZQ7 other isoform, or with tags, fused parts or gaps): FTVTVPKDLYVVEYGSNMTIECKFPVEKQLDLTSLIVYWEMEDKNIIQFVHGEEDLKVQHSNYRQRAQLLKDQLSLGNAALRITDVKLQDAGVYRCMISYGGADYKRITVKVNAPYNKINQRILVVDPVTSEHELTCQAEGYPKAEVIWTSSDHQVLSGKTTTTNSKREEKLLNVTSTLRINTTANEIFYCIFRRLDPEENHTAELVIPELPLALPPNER
Binder,binding result [1],EC50 [2] [nM],binding result [3],FACS fluorescence signal at 0.308 nM (name of read-out not given) [4],FACS fluorescence signal at 0.617 nM (name of read-out not given) [4],FACS fluorescence signal at 1.851 nM (name of read-out not given) [4],FACS fluorescence signal at 5.555 nM (name of read-out not given) [4],FACS fluorescence signal at 16.666 nM (name of read-out not given) [4],FACS fluorescence signal at 50 nM (name of read-out not given) [4],binding result [5],binding result [6],binding result [7]
"抗人PD-L1/4-1BB双特异性抗体 结构B (anti-4-1BB scFv-(G4S)2-IgG4 Fc-(G4S)3-anti-PD-L1 Fab) (bispecific antibody, Two heavy and two light chains; human IgG4 Fc; also called B结构) heavy: not shown light: DIQMTQSPSTLSASVGDRVTITCQSSQNVYSNNRLSWYQQKPGKAPKLLIYWTSFLASGVPSRFSGSGSGTEFTLTISSLQPDDFATYYCAGGYSGNLYTFGQGTKLEIKRTVAAPSVFIFPPSDEQLKSGTASVVCLLNNFYPREAKVQWKVDNALQSGNSQESVTEQDSKDSTYSLSSTLTLSKADYEKHKVYACEVTHQGLSSPVTKSFNRGEC",binds,5.82,binds,617,889,1450,4430,8220,8490,binds,–,–
"抗人PD-L1/4-1BB双特异性抗体 D3 (结构D, D1的突变体, linker A(EAAAK)4ALE) (bispecific antibody, human IgG4 S228P, kappa, F234A L235A, Anti-PD-L1 IgG4 with an anti-4-1BB scFv at the C-terminus of each heavy chain) heavy: not shown light: DIQMTQSPSTLSASVGDRVTITCQSSQNVYSNNRLSWYQQKPGKAPKLLIYWTSFLASGVPSRFSGSGSGTEFTLTISSLQPDDFATYYCAGGYSGNLYTFGQGTKLEIKRTVAAPSVFIFPPSDEQLKSGTASVVCLLNNFYPREAKVQWKVDNALQSGNSQESVTEQDSKDSTYSLSSTLTLSKADYEKHKVYACEVTHQGLSSPVTKSFNRGEC",–,6.59,–,543,708,1390,3820,8710,8870,–,–,–
"抗人PD-L1/4-1BB双特异性抗体 D6 (结构D, D2的突变体, linker (G4S)3) (bispecific antibody, human IgG4 S228P, kappa, F234A L235A, Anti-PD-L1 IgG4 with an anti-4-1BB scFv at the C-terminus of each heavy chain) heavy: not shown light: DIQMTQSPSTLSASVGDRVTITCQSSQNVYSNNRLSWYQQKPGKAPKLLIYWTSFLASGVPSRFSGSGSGTEFTLTISSLQPDDFATYYCAGGYSGNLYTFGQGTKLEIKRTVAAPSVFIFPPSDEQLKSGTASVVCLLNNFYPREAKVQWKVDNALQSGNSQESVTEQDSKDSTYSLSSTLTLSKADYEKHKVYACEVTHQGLSSPVTKSFNRGEC",binds,7.6,binds,516,654,1190,2950,8400,8920,binds,binds,binds
